Data: publication PMC8776730 (Nature Communications, 2022)
Values belong to the molecule of their own block, whether it stands above or below them.

Assays:
[1] = tested on: Recombinant Human Fibroblast Activation Protein-α (FAP-α); test: FAP-α in buffer: 50 mM Tris, 1 M NaCl, 1 mg/mL, BSA, pH 7.5; details: up to 12 h
MIA PaCa-2 tumor = details: mouse, in vivo, iv, 16 mg/kg
Description: In order to reduce systemic error and individual difference, we constructed the subcutaneous pancreatic cancer model in mice for quantitatively calculating of the metabolic data.
All the animal experiments were performed in accordance with the Guide for the Care and Use of Laboratory Animals approved by the Committee for Animal Research of the National Center for Nanoscience and Technology. The MIA PaCa-2 tumor-bearing mice were intravenously injected with ICG, M1 and M2 (16 mg/kg), respectively for in vivo fluorescence imaging with in vivo spectrum imaging system. Finally, mice were sacrificed to collect the major organs and tumors for ex vivo fluorescence imaging.

[2] = mouse, in vivo, iv, 16 mg/kg
MIA PaCa-2 cells [3] = test: Cellular imaging (CLSM) of FITC-labelled molecules; format: cell-based; details: FITC-labelled molecules, MIA PaCa-2 cells, 1 h incubation, CLSM
Description: To further confirm this hypothesis, the M1 and M2 were equally labeled by FITC for cell imaging (Fig. 5b). To simulate the dynamic physiological condition, the cell culture medium was replaced every 15 min. After 1 h of incubation with M1 and M2 at the same molecule molar concentration, there occurred significant differences between the two molecules (Fig. 5c). […] The huge difference can be explained by the fact that the secondary assembly rate broke the balance between the targeted ligand and receptor, and thus tended to a stable assembly interaction. The retention efficiency depended on the assembly rate constant Ka. Meanwhile, the rapid dynamic assembly of BIVA probe in situ around the cell membrane, and contributed to the efficient formation and retention of nanofibers on the cell profile. When the incubation time was delayed up to 2 h, some components could be endocytosed into the cells, but most of them were found on the membranes (Supplementary Fig. 18). […] Then, the isolated cells were collected and lysed, the extracted cell membrane fragments were stained with ThT. […] In order to verify the influence of the addition of the targeting module of the probe molecules, we explored the imaging of R-M1 and M4 on cells.
(§1) Fig. 5 The BIVA effect with enhanced targeting to pancreatic tumor cell for boundaries imaging. a Illustration of BIVA effect: active targeting and assembly/aggregate induced retention (AIR) effect. b Chemical structure of FITC labeling. c 2D and 3D confocal images of M2 with active targeting property and M1 with BIVA effect on MIA PaCa-2 cells after incubation for 1 h. d The distribution of M1 on MIA PaCa-2 cell. e ThT staining of the lysed cell membrane of MIA PaCa-2. f, Illustration of migration inhibition after treated by BIVA probe. g The image of the migrated cells after treatment of PBS (blank), M2, M4, and M1. Scale bar: 100 μm. h The pie diagram of quantitative statistical calculation of the migrated cells (blue) in different groups. The blank control was set as 100% migrated cells.
MIA PaCa-2 cells were digested with trypsin, counted with cell counting plate, diluted to 1 × 10^4 with DMEM medium, and 1 mL to 1 cm diameter confocal microscope dish was taken. The cells were incubated in […] atmosphere for 24 h. The medium containing M1 and M2 (50 μM) was replaced and incubated with the cells for 2 h. The cells were washed with PBS for 3 times. CLSM (Zeiss 710) was used to image cells under 40 × objective, excitation = 488 nm, and emission >520 nm.
Supplementary Fig. 19 ∣ CLSM images of Miapaca-2 cells treated with different molecules or M1 under different conditions. […]

MIA PaCa-2 cells [4] = test: Transwell migration assay; format: cell-based; details: MIA PaCa-2, 150 μM, 24 h; blank control = 1
Description: as §1
In order to further understand the contribution of the active targeting and AIR effect during locating of the cells, the cell transwell experiment was used to quantitively evaluate interference of the cell migration based on M1, M2, and M4 (Fig. 5f). As expected, untreated cells were easy to migrate to the lower chamber, while the cells treated with active targeting molecule M2 and assembled molecule M4, the migration of cell were reduced. Under the same molar concentration, the M1 treatment group had the most inference on cell migration (Fig. 5g). […] Based on those results, we speculate M1 can be more enriched in the tumor site and form fibers through assembly to inhibit tumor cell migration compared to M2 and M4 which have no ability to target and adhere on the cell membrane.
Transwell migration assay occurred in chemotaxis chambers containing 24 wells. […] Bottom chambers contained DMEM medium containing 10% FBS. After 24 h of treatment with M1, M2, and M4 (150 μM), we fixed cells using 4% paraformaldehyde and stained with 0.25% crystal violet solution. The stained cells were counted using a microscope.
Supplementary Fig. 20∣ The quantitative results of the migrated cells after treatment of PBS (blank), M2, […] and
M1 (Fig 5g). The mean of results of fiveparallel experiments is shown and data were expressed as mean ± SD (n=5).
pM1 = 5.85E-06, pM2 = 5.94E-05, pM4 = 3.16 E-04, Statisticalanalysis: one-way ANOVA followed by post hoc Tukey’s
(1 picture or pasted object on this page, not shown here)

[5] = Critical assembly concentration (CAC) by pyrene fluorescence probe; format: physicochemical
From the text: In order to study the molecular design and their assembly behavior, we modular designed and synthesized seven molecules (Table 1), which respectively were BIVA probe: M1 (mPEG-GPAKLVFFGC(IR783)GRGD); the non- FAP-α tailoring molecule: M2 (mPEG-AGGKLVFFGC(IR783)GRGD) scrambled response tailoring motif of Gly-Pro-Ala with Ala-Gly-Gly; the non-labeling molecule of M1: M3 (mPEG-GPAKLVFFGCGRGD) removed IR783 labeling; FAP-α tailoring residue of M1: R-M1 (AKLVFFGC(IR783)GRGD); the non-targeting molecule: M4 (mPEG-GPAKLVFFGC(IR783)GDTG) scrambled targeting tailoring motif of Arg-Gly-Asp with Asp-Thr-Gly; the non-labeling molecule of M2: M5 (mPEG-AGGKLVFFGCGRGD) removed IR783 labeling; FAP-α tailoring residue of M3: R-M3 (AKLVFFGCGRGD). All the synthesized procedure (Supplementary Fig. 1) and characterizations of these seven molecules can be found in SI (Supplementary Figs. 2–8). […] Without IR783 labeling, molecules of M3 and M5 decreased the CAC value in solution relative to M1 and M2, which could be attributed to the proximity of the steric hindrance of hydrophilic IR783 to the self-assembly motif (Supplementary Fig. 9). […] The CAC was quantitatively calculated by fluorescence probe of pyrene.

FAP-α = target: T1, FAP-α (Homo sapiens, UniProt Q12884); test: FAP-α tailoring (cleavage) followed by HPLC and MALDI-TOF; format: biochemical; details: 100 μM molecule, FAP-α 50 μM, 12 h; buffer 50 mM Tris, 1 M NaCl, 1 mg/mL BSA, pH 7.5; HPLC (M3, M5), MALDI-TOF (M1)
T1 construct: purchased R&D SYSTEM
T1 sequence (Q12884 1-760): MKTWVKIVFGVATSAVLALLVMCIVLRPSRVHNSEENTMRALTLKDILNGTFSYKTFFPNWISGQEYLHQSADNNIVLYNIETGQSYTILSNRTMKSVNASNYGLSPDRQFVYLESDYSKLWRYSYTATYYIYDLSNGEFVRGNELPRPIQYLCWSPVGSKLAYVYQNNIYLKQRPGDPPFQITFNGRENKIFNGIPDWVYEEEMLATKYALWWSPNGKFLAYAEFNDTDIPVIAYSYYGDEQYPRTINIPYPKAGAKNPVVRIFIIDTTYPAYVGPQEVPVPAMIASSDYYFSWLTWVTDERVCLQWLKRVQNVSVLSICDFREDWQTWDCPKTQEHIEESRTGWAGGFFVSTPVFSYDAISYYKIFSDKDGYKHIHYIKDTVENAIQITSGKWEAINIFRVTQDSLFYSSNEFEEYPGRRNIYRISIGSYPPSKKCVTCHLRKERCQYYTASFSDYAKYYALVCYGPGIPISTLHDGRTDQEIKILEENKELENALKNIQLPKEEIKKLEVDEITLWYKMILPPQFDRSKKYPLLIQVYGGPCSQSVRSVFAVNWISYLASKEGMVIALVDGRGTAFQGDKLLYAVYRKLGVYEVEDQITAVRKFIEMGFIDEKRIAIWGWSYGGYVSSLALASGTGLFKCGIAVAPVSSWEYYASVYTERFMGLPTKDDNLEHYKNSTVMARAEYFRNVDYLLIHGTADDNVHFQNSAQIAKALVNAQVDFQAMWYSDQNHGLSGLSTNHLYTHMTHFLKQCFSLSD
From the text: To further investigate the FAP-α specific tailoring and BIVA probe assembly in situ simultaneously (Fig. 4a), the high-performance liquid chromatography (HPLC), TEM, and matrix-assisted laser desorption/ionization time-of-flight (MALDI-TOF) mass spectrometry were applied for the characterizations purpose. To specify the cutting of the response tailoring motif (Gly-Pro-Ala), pre-synthesized molecules of R-M3, M3 and M5 were set as controls. […] Comparing the residues peaks with R-M3, the primary sharp peak at 27.4 min can be identified by the R-M3 control (27.6 min). […] The retention time of M1 after co-incubation with inactivated FAP-α was similar to that of M3 (Supplementary Fig. 14). After hydrolyzed by FAP-α, the residues of M1 in situ assembled into nanofibers structures under the complex buffer (Fig. 4c and Supplementary Fig. 15). […] In order to further evaluate the specificity of M1 for different enzymes, including FAP-α, pepsin, pancreatin, lipase, and BSA, we used ThT (Thioflavin T) as a detection probe (Fig. 4e).
Fig. 4 The FAP-α specific molecule tailoring and inducing in situ assembly. a The illustration the working mechanism of BIVA probe based on FAP-α catalytic hydrolysis. b HPLC curves of M3 and M5 after incubation with FAP-α in buffer. R-M3, M3 and M5 were synthesized controls. The TEM image (c), and the MALDI-TOF (d), results of M1 after tailoring by FAP-α in buffer, the red arrows represent the assembled fibrils of M1 after incubation with FAP-α. e The enzyme specificity of M1 in buffer. Buffer: 50 mM Tris, 1 M NaCl, 1 mg/mL, BSA, pH 7.5; Concentration of M1 and M3: 100 μM; Concentration of FAP-α: 50 μM; incubation time: 12 h. […]

Molecule: CC1(C)C(/C=C/C=C/C=C/C=C2\N(CCCCS(=O)(=O)O)c3ccc4ccccc4c3C2(C)C)=[N+](CCCCS(=O)(=O)[O-])c2ccc3ccccc3c21 [ICG, indocyanine green]
time to complete metabolic clearance (MIA PaCa-2 tumor): ≤ 8 h
blood circulation half-life (t1/2) [2]: 2.5 ± 0.5 min

Molecule: mPEG-AGGKLVFFGCGRGD
not cleaved [1]: no change of the retention peak

Molecule: mPEG-GPAKLVFFGC(IR783)GDTG [M4, the non-targeting molecule]
fluorescence signal on the cell membrane (MIA PaCa-2 cells [3]): only a small amount of fluorescence signal
emigrate (migrated cells relative to blank) (MIA PaCa-2 cells [4]): 0.5282

More lines, main results first:

cleaved bond [1]: Pro-Ala
Molecule: mPEG-GPAKLVFFGCGRGD

tailoring (cleavage) by FAP-α (FAP-α): no change of the retention peak
Molecule: mPEG-AGGKLVFFGCGRGD [M5, the non-labeling molecule of M2]
Critical assembly concentration (CAC) ([5]; aqueous solution, analyzed based on pyrene fluorescence): >332.7 µM
pyrene I1/I3 ([5]; conc 100 μM): 1.152
pyrene I1/I3 ([5]; conc 200 μM): 1.176
pyrene I1/I3 ([5]; conc 300 μM): 1.178
pyrene I1/I3 ([5]; conc 400 μM): 1.119
pyrene I1/I3 ([5]; conc 500 μM): 1.173
pyrene I1/I3 ([5]; conc 600 μM): 1.077
pyrene I1/I3 ([5]; conc 700 μM): 1.029
pyrene I1/I3 ([5]; conc 800 μM): 1.021
pyrene I1/I3 ([5]; conc 900 μM): 0.975
